Consider one substance from publication PMC11790859.

The test deals with kalium channelrhodopsin 1 from Hyphochytrium catenoides, slow-cycling mutant C110A (HcKCR1_C110A) (Hyphochytrium catenoides). The test can be described thus: cryo-EM structure.

With “kalium channelrhodopsin 1 from Hyphochytrium catenoides, slow-cycling mutant C110A (HcKCR1_C110A) (domain or fragment)”, the stoichiometry N stood at 3.

Broadly, the stoichiometry N is a count of units in the complex or per binding partner.
